Experiment [1] addresses T1, Fhm, hTL1A(Q167R), soluble, E. coli-expressed, residues 72-251 of SEQ ID NO:246 (human, UniProt O95150 72-251).
T1 construct: with or without N-terminal Met
T1 chain: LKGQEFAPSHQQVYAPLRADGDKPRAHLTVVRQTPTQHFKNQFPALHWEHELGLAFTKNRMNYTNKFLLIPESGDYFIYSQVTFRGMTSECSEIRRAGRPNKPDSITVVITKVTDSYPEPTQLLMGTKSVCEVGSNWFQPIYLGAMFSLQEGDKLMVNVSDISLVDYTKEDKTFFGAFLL
The experiment is described as follows: SPR 25C, mAb captured. A digest of the protocol:
(§1)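 Biacore T100 SPR with captured mAb and soluble TL1A/Fhm analyte; ka and kd fitted to a 1:1 model assuming monomeric TL1A. KD = kd/ka; t1/2 (min) = ln2/(60·kd).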

Experiment [2] deals with T2, cynomolgus monkey TL1A, soluble, E. coli-expressed, residues 72-251 of SEQ ID NO:248 (cynomolgus monkey (Macaca fascicularis), UniProt O95150 72-251 (human entry)).
T2 construct: with or without N-terminal Met; also called MfTL1A (E. Coli)
T2 chain: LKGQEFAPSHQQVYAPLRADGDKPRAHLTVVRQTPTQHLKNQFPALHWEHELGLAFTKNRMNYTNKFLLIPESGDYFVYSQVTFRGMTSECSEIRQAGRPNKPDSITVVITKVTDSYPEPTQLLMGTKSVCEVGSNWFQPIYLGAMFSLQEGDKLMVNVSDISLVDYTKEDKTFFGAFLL
The experiment is described as follows: SPR 25C, mAb captured. A digest of the protocol:
as §1

Experiment [3] deals with T3, Fhm, hTL1A(Q167R), soluble, CHO-expressed, residues 72-251 of SEQ ID NO:246 (human, UniProt O95150 72-251).
T3 construct: also called Fhm (CHO); FHM (CHO)
T3 chain: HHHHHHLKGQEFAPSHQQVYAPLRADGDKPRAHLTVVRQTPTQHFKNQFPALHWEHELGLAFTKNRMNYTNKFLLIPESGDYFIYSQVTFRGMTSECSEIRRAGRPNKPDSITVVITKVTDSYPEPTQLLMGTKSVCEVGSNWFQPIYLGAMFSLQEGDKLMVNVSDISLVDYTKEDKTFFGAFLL
The experiment is described as follows: ELISA, blocks FHM (10 pM) binding hDcR3-Fc. How it is done: (§2) The ability of antibodies to block human TL1A binding to its cognate receptors, the DR3 and DcR3 receptors, was measured using a competition sandwich ELISA. In addition, blocking of a human TL1A variant FHM (human TL1A Q167R) and the cynomolgus monkey (Macaca fascicularis) TL1A (MfTL1A) protein binding to the human DR3 or DcR3 receptors was measured in the same manner. Constant amounts of biotinylated human TL1A or FHM (both expressed with a 6-His tag in CHO cells) or biotinylated MfTL1A (expressed in CHO cells) were separately titrated with varying amounts of antibodies. The antibody-protein complexes were incubated in solution (1 hr, 25° C.) and then transferred to microtiter plates coated with human DR3 (hDR3) or human DcR3 (hDcR3) expressed as human IgG1 Fc fusion proteins. After one hour at 25° C. the wells were washed, and bound human or monkey TL1A was detected with streptavidin conjugated with horseradish peroxidase (HRP). Wells were developed with a TMB solution to produce a colorimetric reaction and quenched with aqueous sulfuric acid before reading absorbance at 450 nm on a Perkin-Elmer Victor X5 plate reader. A sigmoidal dose-response curve was fit to the data using the Prism™ data analysis package. […] Both fully human anti-hTL1A mAbs and comparator antibodies, i.e., control mAb1 (an anti-hTL1A antibody with heavy and light chain variable domains having the amino acid sequences corresponding to SEQ ID NOS:21 and 27, respectively, of US 2009/0280116) and control mAb3 (an anti-hTL1A antibody with heavy and light chain variable domains having the amino acid sequences corresponding to SEQ ID NOS:57 and 48, respectively, of US 2009/0280116), were included in the study. NB: No binding under the conditions tested; NT: Not tested. Concentrations of biotinylated soluble ligands: (1) 150 pM; (2) 500 pM; (3) 10 pM; and (4) 50 pM.
On the technique in general: An ELISA detects its analyte on a solid surface through an enzyme-linked reagent.

Experiment [4] deals with T1, Fhm, hTL1A(Q167R), soluble, E. …. As to the kind of experiment: SPR 37C, mAb captured. An outline of the steps:
as §1

Experiment [5] addresses T4, rat TL1A, soluble, CHO-expressed, residues 76-252 of SEQ ID NO:258 with N-terminal His6-tag (rat, UniProt Q8K3Y7 76-252).
T4 construct: also called rTL1A; rTL1A (CHO)
T4 sequence: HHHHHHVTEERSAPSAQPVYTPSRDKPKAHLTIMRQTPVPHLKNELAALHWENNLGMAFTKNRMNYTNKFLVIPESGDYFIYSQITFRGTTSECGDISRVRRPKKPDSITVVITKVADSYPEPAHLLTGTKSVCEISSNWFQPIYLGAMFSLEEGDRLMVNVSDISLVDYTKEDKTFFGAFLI
As to the kind of experiment: SPR 37C, mAb captured. An outline of the steps:
as §1

Experiment [6] has as its target T3, Fhm, hTL1A(Q167R), soluble, …. The experiment is described as follows: ELISA, blocks FHM (150 pM) binding hDR3-Fc. How it is done: as §2
Experiment [7] has as its target T5, mouse TL1A, soluble, E. coli-expressed, residues 76-252 of SEQ ID NO:250 (mouse, UniProt Q5UBV8 76-252).
T5 construct: with or without N-terminal Met; also called mTL1A (E. Coli)
T5 sequence: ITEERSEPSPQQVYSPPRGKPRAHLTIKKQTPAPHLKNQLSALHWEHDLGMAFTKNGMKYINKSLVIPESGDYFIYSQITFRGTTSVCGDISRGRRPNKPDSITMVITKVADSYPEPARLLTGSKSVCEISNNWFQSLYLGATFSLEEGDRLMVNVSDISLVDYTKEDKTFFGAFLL
As to the kind of experiment: SPR 25C, steady state. An outline of the steps:
as §1

The term Kd denotes the concentration at which binding is half-saturated. A word on the IC50: it is the midpoint of a concentration-inhibition curve.

B1: H4H1719P (antibody, human IgG4 S228P, V domains shown)
VH: EVQLVESGGGLVQPGRSLRLSCVASGFTFQDYAMHWVRQAPGKGLEWVSGINWISDDMGYADSVMGRFTISRDNAKNSLYLQMDSLRAEDTALYYCAKDKGLRFLDYVMDVWGQGTTVTVSA
VL: DIVMTQSPLSLPVTPGEPASISCRSTQSLLHRNGHNYLHWYLHKPGQSPQLLIHLGSNRASGVPDRFSGSGSGTDFTLKISRVEAEDVGVYYCMQALQTPYTFGQGTKLEIK
For the molecule B1, the Kd in experiment [1] turned out to be 0.109 nM; in experiment [2] it was 0.242 nM; in experiment [4] it was 0.174 nM; in experiment [5], 0.078 nM. Also, the t1/2 stood at 96 min in experiment [1], 79 min in experiment [2], 42 min in experiment [4] and 86 min in experiment [5]. Further, the IC50 in experiment [3] stood at 0.045 nM; in experiment [6] it was 0.023 nM. Moreover, the binding result in experiment [7] is listed as “no binding (tested: up to 100 nM)”.

B2: H4H1738P (antibody, human IgG4 S228P, V domains shown)
VH: EVQLVESGGALVKPGGSLRLSCAVSGFTFINDWMNWVRQAPGKGLEWVGRIKSTTDGGTTDDAAPVKGRFTISRDDSKNTLYLQMNSLKTEDTAVYYCTRDRNRQRNYFYDGMDVWGQGTTVTVSA
VL: DIVMTQSPVSLPVTPGEPASISCRSSQRLLHNNGNNYLDWYLQKPGQSPQLLIYLGSNRASGVPDRFSGSGSGTDFTLKVSRVEAEDVGVYYCMQALQTPYTFGQGTKLEIK
Regarding B2, the equilibrium dissociation constant (Kd) came out at 1.02 nM in experiment [1], 1.36 nM in experiment [2] and 3.1 nM in experiment [4]. The t1/2 in experiment [1] was determined as 19 min; in experiment [2], 18 min; in experiment [4] it was 4 min. Also, the IC50 came out at 0.15 nM in experiment [3] and 0.152 nM in experiment [6]. In experiment [7], the binding result is listed as “no binding (tested: up to 100 nM)”.

B3: H4H1704N (antibody, human IgG4 S228P, V domains shown)
VH: EVQLVESGGGLVQPGGSLRLSCAVSGFTFSSYWMSWVRQAPGKGLEWVANIKEDGSEKNYVDSVKGRFTLSSDNAKNSLYLQMNSLRAEDTAVYYCAREDYDSYYKYGMDVWGQGTAVIVSS
VL: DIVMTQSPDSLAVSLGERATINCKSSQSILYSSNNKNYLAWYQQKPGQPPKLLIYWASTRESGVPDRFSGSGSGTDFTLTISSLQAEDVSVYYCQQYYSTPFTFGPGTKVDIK
notes: human IgG4(S108P) form of H2M1704N
The molecule B3 displayed an IC50 in experiment [3] of 0.17 nM. For the same molecule, in experiment [5], the Kd was 0.046 nM and the t1/2 stood at 133 min. Further, in experiment [6], the IC50 came out at 0.044 nM.

B4: H4H1817N (antibody, human IgG4 S228P, V domains shown)
VH: QVQLQQWGAGLLKPSETLSLTCAVSGGSFSDYFWTWIRQPPGKGLEWIGEISHSGRTNYNPSLKSRVTISVDTSMSQFSLKMTSVTAADSAVYYCARDYPNWVFDYWGQGTLVTVSS
VL: EIELTQSPGTLSLSPGEGATLSCRASQSVFNSYLAWYQQKPGQAPRLLIYGASRRATGIPDRFSGSGSGTDFTLTISRLEPGDFAVYFCQQYGNSPLTFGGGTKVEIK
notes: human IgG4(S108P) form of H2M1817N
Consider B4, for which, in experiment [5], binding was characterised by a dissociation constant (Kd) of 1.6 nM and the t1/2 came to 26 min. In experiment [6], the IC50 worked out at 0.235 nM.

B5: H4H1750P (antibody, human IgG4 S228P, V domains shown)
VH: QVQLVESGGGVVQPGRSLRLSCVASGFTFSNYGMHWVRQAPGKGLEWVAVISYDGNNDLYSDSVKGRFTISRDNAKNALSLQMTSLRAEDTAVYYCARDSTMTPYYYHGIDVWGQGTTVTVSA
VL: DIQMTQSPSSLSASVGDRVTITCRASQDIRNDLGWYQQKPGKAPKRLIYAASSLQSGVPSRFSGSGSGTDFTLTISSLQPEDFATYYCLQHNSYPPTFGQGTKVEIK
B5: the values for the Kd in experiment [1], in experiment [2] and in experiment [4] were 0.204 nM, 52.7 nM and 0.244 nM, respectively. Besides, the figures for the t1/2 in experiment [1], in experiment [2] and in experiment [4] were 623 min, 4 min and 335 min, respectively. In addition, the IC50 in experiment [3] was determined as 0.626 nM; in experiment [6], 0.589 nM. Also, in experiment [7], the binding result was “no binding (tested: up to 100 nM)”.

B6: H4H1818N (antibody, human IgG4 S228P, V domains shown)
VH: RLQLVESGGGLVKPGGSLKLSCAASGFTISDYYMSWIRQAPGKGLEWVSYIGGSGSTIYYADSVKGRFTISRDNAKNSLYLQMNSLRAEDTAVYYCAREDADSYYYYGMDVWGQGTTVTVSS
VL: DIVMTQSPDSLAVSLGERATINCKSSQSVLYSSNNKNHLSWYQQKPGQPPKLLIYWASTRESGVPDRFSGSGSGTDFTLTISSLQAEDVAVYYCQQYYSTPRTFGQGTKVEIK
notes: human IgG4(S108P) form of H2M1818N
In experiment [6], B6 came in with an IC50 of 0.202 nM.

B7: H4H1725P (antibody, human IgG4 S228P, V domains shown)
VH: QVQLVQSGAEVKKPGASVKVSCKASGYTFTGYYMHWVRQAPGQGLEWMGWIKPKSGGTNYVQKFQGRVTMTRDTSINTAYMELNNLKSDDTAVYYCATGGSQDASDFWGQGTMVTVSS
VL: DIQMTQSPSSVSASVGGRVTITCRASQDISIWLAWYQQKPGKAPNLLIYAASSLQSGVPSRFSGSGSGTDFTLTISSLQPEDFATYYCQQADSFPLTFGGGTKVEIK
Regarding B7, the equilibrium dissociation constant (Kd) was 0.0289 nM in experiment [1]; 0.0637 nM in experiment [2]; 0.0436 nM in experiment [4]; 0.411 nM in experiment [5]; 62 nM in experiment [7]. Moreover, the t1/2 in experiment [1] was 447 min; in experiment [2] it was 292 min; in experiment [4], 194 min; in experiment [5], 15 min. Moreover, the IC50 came to 0.085 nM in experiment [3] and 0.018 nM in experiment [6].

B8: H4H1752P (antibody, human IgG4 S228P, V domains shown)
VH: EVQLVESGGGLVQPGGSLRLSCSASGFTFSKYVMTWVRQAPGKGLEWVSAIGPTGRTTEYADSVQGRFTISRDNSMNTVFLHLNSLTAEDTAEYYCAKMFDWNYDVYFDSWGQGTLVTVSS
VL: DIQMTQSPSILSASVGDRVTITCRTSQSISNWLAWYQQKPGKAPNLLIYKASSLESGVPSRFSGSGSGTEFTLTISSLQPDDFATYYCQQYYRYWTFGQGTKVEIK
On to B8, for which, in experiment [1], the binding result is listed as “no binding (tested: up to 100 nM)”. Further, in experiment [2], the Kd was determined as 0.274 nM and the t1/2 was determined as 122 min. The binding result in experiment [7] is recorded as “no binding (tested: up to 100 nM)”.

B9: H4H1804N (antibody, human IgG4 S228P, V domains shown)
VH: QVQLHQWGAGLLKPSETLSLTCAVSGVSFSDYHWAWIRQSPGKGLEWIGDINHRGRTNYNPSLKSRVTISLDTSGNPFSLKLTSVTAADTAVYYCARDFPNWVFDSWGQGILVTVSS
VL: EIVLSQSPGTLSLSPGERATLSCRASQSVSSSFLAWYQQYPGQAPRLLIYGASRRATGIPDRFRGSGSGTDFTLTISRLEPEDFAVYYCQQYGSSPLTFGGGTKVENK
notes: human IgG4(S108P) form of H2M1804N
In experiment [5], B9 yielded a Kd of 0.127 nM and a t1/2 of 88 min.

The record behind these values is patent US20140120109A1 (Regeneron, published 2014).
